Measured values: patent US11419945B2, “Antigen binding proteins” (Glaxo Group Limited, priority 2011, dated 2022)

Assays:
NCI-H929 tumours = experiment: NCI-H929 murine xenograft; format: in vivo, CB.17 SCID mice
Procedure: FIG. 19: Effect of dose escalation of J6M0 and drug conjugated J6M0 on the growth and establishment of NCI-H929 cells in CB.17 SCID mice. Calculated tumour volumes of NCI-H929 tumours in CB17 SCID mice following twice weekly intraperitoneal dosing of either 50 or 100 ug J6M0 anti-BCMA or IgG1 isotype control unconjugated, or conjugated to MMAE or MMAF for 2 weeks. Data points represent mean tumour volume of n=5 per group
The cell line selected for xenograft studies was NCI-H929 which is sensitive to ADC and ADCC killing in vitro. Studies were carried out in immunocompromised CB.17 SCID mice which lack T and B cells but maintain NK cells to allow for ADCC activity.
In order to independently analyze both the ADCC and ADC activities of J6M0 we tested J6M0 antibody in the presence and absence of MMAF or MMAE conjugation. By testing the unconjugated J6M0, any anti-tumour effects could be attributed to some combination of ADDC and functional inhibitory activity.
Mice with NCI-H929 tumours that had reached a volume of 200 mm^3 on average were treated with a human IgG1 control or the J6M0 antibody (unconjugated, MMAE or MMAF) twice weekly at a dose of 50 ug or 100 ug, for 2 weeks.

[1] = test system: Europium labelled ARH77-10B5 cells; experiment: ADCC potency of conjugated, afucosylated J6M0; format: cell-based, human; conditions: PBMC: target cell ratio 50:1, up to 10000 ng/ml, 2 hours
Procedure: FIG. 17: ADCC activity of ADC J6M0 molecules—Figure showing ADCC assay on J6M0 antibodies using ARH77 BCMA expressing target cells. Human PBMC were incubated with europium labelled ARH77 BCMA transfected target cells in the presence of a range of concentrations of J6M0 WT and potelligent BCMA antibodies conjugated to MMAE, MMAF, or unconjugated Europium release was monitored on the Victor 2 1420 multilabel reader.
Afucosylated J6M0 conjugated to MMAE or MMAF was tested in ADCC assays using BCMA transfectants to ensure that its ADCC activity was not compromised by the conjugation. Europium labelled ARH77-10B5 cells were incubated with various J6M0 WT and Potelligent BCMA antibodies at concentrations up to 10000 ng/ml for 30 minutes prior to the addition of PBMCs (PBMC: target cell ratio 50:1). Two hours later an aliquot of cell media was sampled and mixed with enhancement solution. After 30 minutes on a plate shaker, europium release was monitored on the Victor 2 1420 multi-label reader. Datapoints represent means of triplicate values.

[2] = test system: five multiple myeloma target cell lines; experiment: ADCC of afucosylated J6M0 on MM cell lines (panel); format: cell-based; conditions: human PBMC, E:T ratio 50:1, 18 hours
Procedure: (§1) FIG. 18: ADCC dose response curves of CA8 J6M0 Potelligent against a panel of 5 multiple myeloma lines—Human PBMC were incubated with multiple myeloma target cells in the presence of varying concentrations of CA8 J6M0 potelligent antibody at an E:T ratio of 50:1 for 18 hours. The percentage of target cells remaining in the effector plus target mixture was then measured by FACS using a fluorescently labelled anti-CD138 antibody to detect the target cells and the percent cytotoxicity calculated. Example dose response curves for CA8 J6M0 potelligent against the five multiple myeloma cell lines tested—[…], RPMI8226, JJN-3, OPM-2, and U266. Each data point is from a singlicate value.
(§2) Human PBMC were incubated with multiple myeloma target cells at an E:T ratio of 50:1 in presence of varying concentrations of afucosylated (Potelligent) J6M0 The percentage of target cells remaining in the effector+target cell mixture after 18 hours was measured by FACS using a fluorescently labelled anti-CD138 antibody to detect the target cells and the percent lysis calculated. This is representative of several experiments.

OPM-2 = experiment: ADCC of afucosylated J6M0, OPM-2; format: cell-based, human; conditions: OPM-2, ADCC, PBMC E:T 50:1, 18 hours; one value per assay/donor (A-K)
Procedure: as §1, §2

U266 = experiment: ADCC of afucosylated J6M0, U266; format: cell-based, human; conditions: PBMC E:T 50:1, 18 hours, one value per assay/donor (A-K)
Procedure: as §1, §2

Human in house BCMA = target: T1, Human in house BCMA (Homo sapiens, UniProt Q02223); experiment: ProteOn analysis of CA8 chimeric and humanised constructs, human in house BCMA; format: binding
T1 construct: CD33 signal peptide (N); TEV site (internal); Fc (C); made in house
T1 sequence (Q02223 with tags, fused parts or gaps limits assumed): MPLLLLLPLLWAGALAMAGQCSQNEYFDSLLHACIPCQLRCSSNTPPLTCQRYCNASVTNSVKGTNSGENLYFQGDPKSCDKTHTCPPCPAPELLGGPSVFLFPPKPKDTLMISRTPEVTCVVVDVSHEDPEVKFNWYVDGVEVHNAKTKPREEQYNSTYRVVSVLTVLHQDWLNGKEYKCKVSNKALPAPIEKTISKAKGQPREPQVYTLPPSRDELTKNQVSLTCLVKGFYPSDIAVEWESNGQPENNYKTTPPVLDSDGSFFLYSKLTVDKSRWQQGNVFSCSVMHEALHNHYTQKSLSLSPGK
Procedure: (§3) The initial screen of CA8 chimeric and humanised variants was carried out on the ProteOn XPR36 (Biorad). The method was as follows; Protein A was immobilised on a GLC chip (Biorad, Cat No: 176-5011) by primary amine coupling, CA8 variants were then captured on this surface and recombinant human BCMA (in house or commercial US Biological, B0410) materials (run 2 only)) passed over at 256, 64, 16, 4, 1 nM with a 0 nM injection (i.e. buffer alone) used to double reference the binding curves, the buffer used is the HBS-EP buffer. 50 mM NaOH was used to regenerate the capture surface. The data was fitted to the 1:1 model using the analysis software inherent to the ProteOn XPR36. Run 1 corresponds to the first screen of humanised CA8 variants (JO to J5 series) and run 2 to the second screen of humanised CA8 variants (J5 to J9 series). Both runs were carried out at 25° C.

Human commercial BCMA [3] = target: T2, Human commercial BCMA (Homo sapiens, UniProt Q02223); experiment: ProteOn analysis of CA8 chimeric and humanised constructs, commercial human BCMA; format: binding; conditions: Run 2, commercial human BCMA, 25° C.
T2 construct: purchased US Biological B0410
T2 sequence (Q02223 1-184): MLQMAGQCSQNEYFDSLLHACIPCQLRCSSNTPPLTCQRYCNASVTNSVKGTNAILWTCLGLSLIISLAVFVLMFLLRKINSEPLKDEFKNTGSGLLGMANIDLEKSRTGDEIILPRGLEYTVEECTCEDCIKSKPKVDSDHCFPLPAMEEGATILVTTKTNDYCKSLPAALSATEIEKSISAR
Procedure: as §3

Cyno in house BCMA [4] = experiment: ProteOn analysis of CA8 chimeric and humanised constructs, cyno in house BCMA; format: binding; conditions: Run 2, Cyno in house BCMA, 25° C.
Chain of Cyno in house BCMA (as listed by the source): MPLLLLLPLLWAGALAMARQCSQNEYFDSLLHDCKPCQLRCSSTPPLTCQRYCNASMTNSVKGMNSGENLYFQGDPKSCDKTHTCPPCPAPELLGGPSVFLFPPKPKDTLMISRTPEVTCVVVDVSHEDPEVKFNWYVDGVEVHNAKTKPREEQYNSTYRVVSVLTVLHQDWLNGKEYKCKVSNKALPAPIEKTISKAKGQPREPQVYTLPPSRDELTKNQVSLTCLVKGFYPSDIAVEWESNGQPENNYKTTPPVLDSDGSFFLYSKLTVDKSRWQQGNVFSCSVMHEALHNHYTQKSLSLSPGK

Human commercial BCMA [5] = target: T2, Human commercial BCMA; experiment: BIAcore analysis of J6M0 and J9M0, human commercial BCMA; format: binding
Procedure: (§4) Protein A was immobilised on a CMS chip (GE Healthcare, Cat No: BR-1005-30) by primary amine coupling and this surface was then used to capture the antibody molecules. Recombinant human BCMA (US Biological, B0410) was used as analyte at 256 nM, 64 nM, 16 nM, 4 nM and 1 nM. Regeneration of the capture surface was carried out using 50 mM NaOH. All binding curves were double referenced with a buffer injection (i.e. 0 nM) the data was fitted to the using the 1:1 model inherent to T100 evaluation software. The run was carried out at 25° C. and 37° C. for experiment 1 and only 37° C. for experiment 2 using HBS-EP as the running buffer.

[6] = target: T3, ARH77-hBCMA 10B5 BCMA expressing transfectant cells (Homo sapiens, UniProt Q02223); experiment: FACS binding of humanised CA8 to BCMA transfected cells; conditions: varying concentrations, 20 minutes at RT
T3 construct: expressed in transfected cells; host or cells: ARH77 (clone 10B5)
T3 sequence (Q02223 1-184): T2 sequence (Q02223 1-184)
Procedure: (§5) ARH77-hBCMA 10B5 BCMA expressing transfectant cells or H929 cells were stained with either chimeric CA8 or humanised variants of CA8 designated J6M0, J6M1, J6M2, J9M0, J9M1, J9M2 at varying concentrations for 20 minutes at RT. Cells were then washed with FACS buffer (PBS+0.5% BSA+0.1% sodium azide) to remove unbound antibody. Cells were incubated with a secondary PE labelled anti-human IgG antibody for 15 minutes at RT and then washed with FACS buffer to remove unbound antibody. Cells were analysed by FACS and mean fluorescence intensity (MFI) values measured to determine binding.

H929 cells = experiment: FACS binding of humanised CA8 to H929 cells; design: species or system human; conditions: varying concentrations, 20 minutes at RT
Procedure: as §5

Human commercial BCMA [7] = target: T2, Human commercial BCMA; experiment: BIAcore analysis J7 to J9 series, human commercial BCMA; format: binding; conditions: 37° C.
Procedure: as §4, with “nM) and” for “nM)”, “at” for “at 25° C. and”, “C.,” for “C. for experiment 1 and only 37° C. for experiment 2”

Cyno in house BCMA [8] = experiment: BIAcore analysis J7 to J9 series, cyno in house BCMA; format: binding; conditions: 37° C.

With J6M0-MMAF as the molecule, how does the “anti-tumour activity compared with unconjugated J6M0 and J6M0-MMAE” value (NCI-H929 tumours; 50 ug or 100 ug twice weekly for 2 weeks) read?
Its value is “increased anti-tumour activity over both unconjugated J6M0 antibody and J6M0-MMAE conjugate”.

And the “effect on NCI-H929 tumours” value (NCI-H929 tumours; 100 ug dose twice weekly for 2 weeks, intraperitoneal, tumours 200 mm^3 at start)?
The value was “elimination of tumours”.

What about the recurrence of tumour (NCI-H929 tumours; mice maintained for 40 days after the last dose) of the same molecule?
Its recurrence of tumour is “no recurrence of tumour”.

“J6M0 Potelligent: humanised CA8 version J6M0 in afucosylated (Potelligent) form” was tested. Which “ADCC potency (europium release)” value [1] did it give?
The value was “lower EC50 and higher maximal lysis”.

And the ADCC activity [2]?
Its ADCC activity is “showed ADCC activity against all five multiple myeloma target cell lines tested”.

And the EC50 (OPM-2)?
The EC50 was 4.15 ng/mL.

And the EC50 (U266)?
Its EC50 is 9.04 ng/mL.

Which results are given for CA8 humanised J6M0?
ka (Human in house BCMA; Run 2, Human in house BCMA, ProteOn, 25° C., in M-1s-1 (unit assumed)): 2.40E+05; kd (Human in house BCMA; Run 2, Human in house BCMA, ProteOn, 25° C., in s-1 (unit assumed)): 7.40E−05; ka (Human commercial BCMA [3]; in M-1s-1 (unit assumed)): 6.23E+05; kd (Human commercial BCMA [3]; in s-1 (unit assumed)): 5.37E−05; ka (Cyno in house BCMA [4]; in M-1s-1 (unit assumed)): 5.64E+04; kd (Cyno in house BCMA [4]; in s-1 (unit assumed)): 3.18E−04; ka (Human commercial BCMA [5]; 25° C., Experiment 1, in M-1s-1 (unit assumed)): 1.01E+06; kd (Human commercial BCMA [5]; 25° C., Experiment 1, in s-1 (unit assumed)): 1.22E−04; ka (Human commercial BCMA [5]; 37° C., Experiment 1, in M-1s-1 (unit assumed)): 2.12E+06; kd (Human commercial BCMA [5]; 37° C., Experiment 1, in s-1 (unit assumed)): 1.48E−03; ka (Human commercial BCMA [5]; 37° C., Experiment 2, in M-1s-1 (unit assumed)): 3.78E+06; kd (Human commercial BCMA [5]; 37° C., Experiment 2, in s-1 (unit assumed)): 1.88E−03

B1: CA8 humanised J9M2: humanised CA8 anti-BCMA antibody, VH J9 (SEQ ID NO:29) + VL M2 (SEQ ID NO:35) (antibody, V domains shown)
VH: QVQLVQSGAEVKKPGSSVKVSCKGSGYTFTNYWMHWVRQAPGQGLEWIGATYRGHSDTYYNQKFKGRATLTADTSTSTAYMELSSLRSEDTAVYYCTRGAIYDGYDVLDNWGQGTLVTVSS
VL: DIQLTQSPSSLSASVGDRVTITCSASQDISNYLNWYQQKPGKAPELVIYYTSNLHSGVPSRFSGSGSGTDYTLTISSLQPEDFATYYCQQYRKLPWTFGQGTKLEIKR
modifications: Humansed antibody sequence
How did the “dose dependent binding to ARH77-hBCMA 10B5 cells by FACS (MFI)” value [6] turn out when B1 was run?
The value was “all antibodies tested apart from J9M2 bound”.

What about the “dose dependent binding to H929 cells by FACS (MFI)” value (H929 cells) of the same molecule?
Its value is “all antibodies tested apart from J9M2 bound”.

What about the off rate (Human in house BCMA; Run 2, ProteOn, recombinant human BCMA, no affinity values obtained) of the same molecule?
The off rate was “beyond the sensitivity of the assay”.

And the KD (Human commercial BCMA [7])?
The KD was “No”.

What about the ka (Cyno in house BCMA [8]; in M-1s-1 (unit assumed)) of the same molecule?
The ka was 4.88E+05.

What about the kd (Cyno in house BCMA [8]; in s-1 (unit assumed)) of the same molecule?
The kd was 2.52E−04.
